In publication PMC8385704 one finds EC50 data, which are given here for three substances.

ACE2-Fc fusion protein (extracellular domain of human ACE2 and the Fc region of human IgG1) (human), sequence (Q9BYF1 18-740): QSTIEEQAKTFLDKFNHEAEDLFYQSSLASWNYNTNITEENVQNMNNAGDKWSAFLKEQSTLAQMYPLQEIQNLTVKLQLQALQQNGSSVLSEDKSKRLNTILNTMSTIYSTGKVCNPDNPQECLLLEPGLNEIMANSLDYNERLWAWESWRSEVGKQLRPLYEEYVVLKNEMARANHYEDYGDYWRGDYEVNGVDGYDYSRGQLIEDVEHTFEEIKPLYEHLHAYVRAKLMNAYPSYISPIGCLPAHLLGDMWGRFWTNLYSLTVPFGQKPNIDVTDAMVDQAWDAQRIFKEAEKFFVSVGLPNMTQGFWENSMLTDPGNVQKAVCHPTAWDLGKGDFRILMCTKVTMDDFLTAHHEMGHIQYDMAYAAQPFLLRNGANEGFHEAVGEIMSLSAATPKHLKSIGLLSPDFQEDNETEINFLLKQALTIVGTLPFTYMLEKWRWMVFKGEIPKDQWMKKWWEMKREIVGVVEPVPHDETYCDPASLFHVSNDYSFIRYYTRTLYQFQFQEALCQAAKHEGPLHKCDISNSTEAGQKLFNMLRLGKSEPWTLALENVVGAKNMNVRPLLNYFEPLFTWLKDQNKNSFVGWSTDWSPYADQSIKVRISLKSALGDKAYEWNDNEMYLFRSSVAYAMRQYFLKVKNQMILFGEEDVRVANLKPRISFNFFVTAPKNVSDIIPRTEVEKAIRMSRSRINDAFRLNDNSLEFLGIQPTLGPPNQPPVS
recombinant S1-subunit or RBD of HCoV-NL63 (domain or fragment), sequence (Q6Q1S2 19-717 limits assumed): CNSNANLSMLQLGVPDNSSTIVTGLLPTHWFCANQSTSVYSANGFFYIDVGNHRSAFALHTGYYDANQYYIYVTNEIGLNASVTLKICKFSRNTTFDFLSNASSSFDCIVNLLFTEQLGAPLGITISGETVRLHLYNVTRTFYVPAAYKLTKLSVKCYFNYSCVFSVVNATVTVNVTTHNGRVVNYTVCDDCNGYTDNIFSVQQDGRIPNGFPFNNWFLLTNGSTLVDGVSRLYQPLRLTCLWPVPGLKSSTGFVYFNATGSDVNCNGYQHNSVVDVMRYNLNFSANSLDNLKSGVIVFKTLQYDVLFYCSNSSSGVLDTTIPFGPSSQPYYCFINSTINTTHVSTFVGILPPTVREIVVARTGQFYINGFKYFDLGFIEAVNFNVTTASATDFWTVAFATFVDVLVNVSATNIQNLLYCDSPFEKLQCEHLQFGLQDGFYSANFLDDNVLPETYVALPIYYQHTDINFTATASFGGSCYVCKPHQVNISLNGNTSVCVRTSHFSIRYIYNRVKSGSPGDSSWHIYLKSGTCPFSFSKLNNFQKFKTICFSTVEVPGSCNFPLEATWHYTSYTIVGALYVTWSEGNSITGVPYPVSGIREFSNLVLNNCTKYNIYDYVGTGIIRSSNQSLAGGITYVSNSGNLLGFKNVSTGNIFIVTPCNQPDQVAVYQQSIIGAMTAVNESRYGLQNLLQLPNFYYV

The test addresses ACE2-Fc fusion protein (extracellular domain of human ACE2 and the Fc region of human IgG1) (human) (UniProt Q9BYF1). Kind of test: ELISA.
As to “recombinant S1-subunit or RBD of HCoV-NL63 (domain or fragment)”, the EC50 amounted to 0.0242 µM.

On to “recombinant S1-subunit or RBD of SARS-CoV-2 (domain or fragment)”, for which the concentration giving a half-maximal response (EC50) is 0.0118 µM.

Regarding “recombinant S1-subunit or RBD of SARS-CoV (domain or fragment)”, the 50% effective concentration (EC50) turned out to be 0.0011 µM.

One may read the EC50 as the concentration that produces a half-maximal response. A higher EC50 goes with weaker potency.
